# B1: Enterobactin synthase component B (Escherichia coli (strain K12)), P0ADI4 (parent)
# chain: MAIPKLQAYALPESHDIPQNKVDWAFEPQRAALLIHDMQDYFVSFWGENCPMMEQVIANIAALRDYCKQHNIPVYYTAQPKEQSDEDRALLNDMWGPGLTRSPEQQKVVDRLTPDADDTVLVKWRYSAFHRSPLEQMLKESGRNQLIITGVYAHIGCMTTATDAFMRDIKPFMVADALADFSRDEHLMSLKYVAGRSGRVVMTEELLPAPIPASKAALREVILPLLDESDEPFDDDNLIDYGLDSVRMMALAARWRKVHGDIDFVMLAKNPTIDAWWKLLSREVK
# partner: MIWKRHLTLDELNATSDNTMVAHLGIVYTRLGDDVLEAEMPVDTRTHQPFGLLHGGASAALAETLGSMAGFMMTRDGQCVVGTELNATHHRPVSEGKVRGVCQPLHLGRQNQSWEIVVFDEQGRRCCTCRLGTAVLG
# Variants of: B1
# Details: with enth_ecoli entH
row,effect of a mutation on the interaction,Variant
1,decreasing interaction strength,MAIPKLQAYALPESHDIPQNKVDWAFEPQRAALLIHDMQDYFVSFWGENCPMMEQVIANIAALRDYCKQHNIPVYYTAQPKEQSDEDRALLNDMWGPGLTRSPEQQKVVDRLTPDADDTVLVKWRYSAFHRSPLEQMLKESGRNQLIITGVYAHIGCMTTATDAFMRDIKPFMVADALADFSRDEHLMSLKYVAGRSGRVVMTEELLPAPIPASKAALREVILPLLDESDEPFDDDNLIDYGLDAVRMMALAARWRKVHGDIDFVMLAKNPTIDAWWKLLSREVK [S245A]

# From IntAct's records for PubMed 17675380
